From patent WO2007022015A1
One block for each molecule: values may come before it.

Key:
[1] = molecular target: rodent (mouse) Aβ1-42 (mouse (rodent)) (UniProt P12023); assay: microplate assay on coated human and rodent Aβ1-40 and 1-42
[2] = molecular target: rodent (mouse) Aβ1-40 (mouse (rodent)) (UniProt P12023); assay: as above
amyloid β (2-40) (human) = amyloid β (2-40) (human) (UniProt P05067); assay: sandwich ELISA, IAlO capture, HRP-14Fl detection, Abeta fragment 2-40
human Aβ1-40 (human) = human Aβ1-40 (human) (UniProt P05067); assay: sandwich ELISA, IAlO capture, HRP-14Fl detection, human and mouse Abeta 1-40
amyloid β (3-40) (human) = amyloid β (3-40) (human) (UniProt P05067); assay: sandwich ELISA, IAlO capture, HRP-14Fl detection, Abeta fragment 3-40

cross-reactivity (against human Aβ) [1]: 10%
cross-reactivity (against human Aβ) [2]: 10%
Molecule: Aβ N-terminal-end specific monoclonal antibody 82E1 (printed 82El)

cross reactivity (against full-length Abeta 1-40) (amyloid β (2-40) (human)): 0.78%
cross reactivity (against mouse Abeta 1-40) (human Aβ1-40 (human)): 50%
cross reactivity (against full-length Abeta 1-40) (amyloid β (3-40) (human)): 0.08%
B1: 14F1, mouse/human cross-reactive N terminus end-specific anti-Abeta antibody (antibody, V domains shown)
VH: DVHLQASGPDLVRPSQSLSLTCTVTDYSITSDYSWHWIRQFPGNKLEWMGYILFSGSSNFNPSLKSRISITRDTSKNQFFLHLNSVTTEDTATYYCARRAYDGNFSWFAYWGQGTLVTVSA
VL: QAVVTQESALTTSPGETVTLTCRSSAGAVTISNYANWVQEKPDHLFTGLIGGTNNRAPGVPARFSGSLIGDKAALTITGAQTEDEAIYFCALWYGNYWVFGGGTKLTVLG
